Residue numbers refer to the chain shown, from its start. In names and notes the source's numbering stands. Several values for one entry are separate records, joined by “and”; a condition that tells them apart may be missing. Equal values may be shown once.
Legend:
[1] = target: the molecule itself; assay: SEC + other: negative stain EM; filament assembly assay: Sephacryl 16/60 S500 gel filtration in 25 mM Tris-HCl pH 8.4, 50 mM NaCl; void volume, peak 1 and peak 2 analysed by SDS-PAGE and negative stain EM
[2] = target: the molecule itself; assay: cryo-EM structure; 35 μM Vipp1 mixed with pre-formed rat Dynamin 1 filaments (to keep the ice thick) and vitrified; rings of C11 to C17 symmetry reconstructed
[3] = target: the molecule itself; assay: cross-linking; cysteine cross-linking: 5 μM protein in 25 mM Tris-HCl pH 8.4, 50 mM NaCl with CuP or 5 μM MTS-4, 1 h at room temperature; rescue with 10 mM DTT; SDS-PAGE

B1: Vipp1Δα6_(1–219) (domain or fragment, Nostoc punctiforme, UniProt B2J6D9 1-219, looked up)
chain: MGLFDRIKRVVSSNLNDLVNKAEDPEKMLEQAILEMQEDLVQLRQGVAQAIAAQKRSEKQYNDAQNEINKWQRNAQLALQKGDENLARQALERKKTYTDTSAALKASLDTQSTQVETLKRNLIQLESKISEAKTKKEMLKARITTAKAQEQLQGMVRGMNTSSAMSAFERMEEKVLMQESRAQALGELAGADLETQFAQLEGGSDVDDELAALKAQMLP
notes: Vipp1/IM30, Nostoc punctiforme, UniProt B2J6D9, residues 1-219; lacks the C-terminal extension with helix α6 (aa 220-258); Plasmid pOPTM/Vipp1Δα6_(1-219); not shown: MBP, N-terminal, cleaved; His6, N-terminal, cleaved
[1]
  binding result: binds

B2: Vipp1/IM30 from Nostoc punctiforme, full-length (amino acids 1–258) (natural protein, UniProt B2J6D9 1-258, looked up)
chain: MGLFDRIKRVVSSNLNDLVNKAEDPEKMLEQAILEMQEDLVQLRQGVAQAIAAQKRSEKQYNDAQNEINKWQRNAQLALQKGDENLARQALERKKTYTDTSAALKASLDTQSTQVETLKRNLIQLESKISEAKTKKEMLKARITTAKAQEQLQGMVRGMNTSSAMSAFERMEEKVLMQESRAQALGELAGADLETQFAQLEGGSDVDDELAALKAQMLPPATPVTQAQLPPQQETTPAKSNEVVDAELDSLRKQLDQL
notes: Vipp1/IM30, Nostoc punctiforme, UniProt B2J6D9, amino acids 1-258, 28.7 kDa; His6 sits on the MBP moiety and leaves with it on TEV cleavage; also called native Vipp1; WT; not shown: MBP, N-terminal, cleaved; His6, N-terminal, cleaved
[2]
  stoichiometry N: 84 subunits and 55 subunits to 119 subunits (2×)

B3: Vipp1_(L86C/L193C) (natural protein, Nostoc punctiforme, UniProt B2J6D9 1-258, looked up)
chain: B2 chain with L86C, L193C
notes: Vipp1/IM30, Nostoc punctiforme, UniProt B2J6D9, with the cysteine pair L86C and L193C; Plasmid pOPTM/Vipp1_(L86C/L193C); The legend notes some uncleaved MBP-Vipp1 in the gel; also called L193C and L86C mutants; not shown: MBP, N-terminal, cleaved; His6, N-terminal, cleaved
[3]
  binding result: binds

Reference: article PMC8281802, “Bacterial Vipp1 and PspA are members of the ancient ESCRT-III membrane-remodeling superfamily” (Cell, 2021)
